Measured values: US12329823B2 (The Scripps Research Institute, priority 2021, dated 2025)
Values joined by “and” are separate entries in the source; they are usually repeats but may differ in a detail not shown here. Identical values can stand only once. Like-named read-outs stand apart in the source and are kept apart here.

Tests used:
[1] = target: T1, human GIPR (Homo sapiens, UniProt P48546); experiment: In vitro receptor activation reporter assay (CRE-Luc, HEK293-GIPR-CRE cells; receptor-mediated cAMP synthesis); type: cell-based; conditions: Table 11, human
T1 construct: expressed in transfected cells; host or cells: HEK293 (CRE-HEK293, HEK293-GIPR-CRE)
T1 sequence (P48546 22-466): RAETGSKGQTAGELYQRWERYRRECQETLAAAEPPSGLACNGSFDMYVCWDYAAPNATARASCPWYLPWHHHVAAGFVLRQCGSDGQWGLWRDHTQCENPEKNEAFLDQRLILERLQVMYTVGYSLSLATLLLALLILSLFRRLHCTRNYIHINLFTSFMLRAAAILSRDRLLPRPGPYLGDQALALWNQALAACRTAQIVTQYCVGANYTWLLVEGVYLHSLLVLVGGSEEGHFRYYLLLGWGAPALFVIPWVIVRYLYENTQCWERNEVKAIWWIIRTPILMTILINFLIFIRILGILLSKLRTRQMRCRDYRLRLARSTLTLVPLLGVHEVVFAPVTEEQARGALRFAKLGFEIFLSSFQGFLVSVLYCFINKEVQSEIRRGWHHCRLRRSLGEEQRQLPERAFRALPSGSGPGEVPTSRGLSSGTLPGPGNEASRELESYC
Method: HEK293 cells were infected with lentivirus encoding firefly luciferase gene under the control of cAMP responsive element (CRE) promoter (Qiagen, The Netherlands) and then were selected using 1 μg mL^−1 puromycin (Life Technologies, Carlsbad) for 1 week. The surviving cells (referred to as CRE-HEK293) were expanded and then transfected with a G418 selective mammalian expression plasmid encoding human GLP-1R or GIPR. In brief, GLP-1R or GIPR plasmid was transfected into CRE-HEK293 cells using Lipofectamine 2000 and selected with 400 μg mL^−1 Geneticin (Life Technologies, Carlsbad, CA). Single colony stable cell line overexpressing CRE-luciferase and GLP-1R or GIPR (HEK293-GLP-1R-CRE or HEK293-GIPR-CRE) was then established for in vitro activity assay.

[2] = target: cynomolgous monkey GLP1R (Macaca fascicularis, UniProt F8V479); experiment: In vitro potency, cynomolgous monkey GLP1R activation (receptor-mediated cAMP synthesis); type: cell-based; conditions: Table 12; read-out: In Vitro Potency GLP1R EC50, Cyno
Method: (§1) GLP-1R-CRE or HEK293-GIPR-CRE cells were seeded in 384-well plates at a density of 5000 cells per well and cultured for 18 h in DMEM with 10% FBS at 37° C. and 5% CO2. Cells were treated with peptides in a dose dependent manner for 24 h, and receptor activation was reported by luminescence intensities, using One-Glo (Promega, WI) luciferase reagent following manufacturer's instruction. The EC50 of each peptide was determined using GraphPad Prism 6 software (GraphPad, San Diego, CA). Results are depicted in FIGS. 6A-6B, FIGS. 7A-7B, FIGS. 8A-8B, FIGS. 9A-9B, and Tables 7-12. Measurements of peptide conjugate potency were expressed as half maximal effective concentration (EC50) values.

[3] = target: T2, dog GLP1R (Canis lupus familiaris, UniProt A0A8I3NUR9); experiment: In vitro potency, dog GLP1R activation (receptor-mediated cAMP synthesis); type: cell-based; conditions: Table 12
T2 sequence (A0A8I3NUR9 1-464): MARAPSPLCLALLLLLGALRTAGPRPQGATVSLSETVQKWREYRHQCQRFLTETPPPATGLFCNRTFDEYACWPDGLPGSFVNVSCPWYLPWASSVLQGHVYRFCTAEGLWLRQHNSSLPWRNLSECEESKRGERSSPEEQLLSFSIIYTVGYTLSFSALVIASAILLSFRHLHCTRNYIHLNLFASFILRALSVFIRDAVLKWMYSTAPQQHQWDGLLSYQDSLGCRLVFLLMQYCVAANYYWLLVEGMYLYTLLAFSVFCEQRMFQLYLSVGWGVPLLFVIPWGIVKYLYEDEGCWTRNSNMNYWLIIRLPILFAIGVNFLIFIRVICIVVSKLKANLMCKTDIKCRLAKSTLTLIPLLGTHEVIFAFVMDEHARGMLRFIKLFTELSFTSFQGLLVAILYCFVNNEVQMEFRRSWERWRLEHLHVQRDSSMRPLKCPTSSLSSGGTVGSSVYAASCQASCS
Method: as §1

[4] = target: T3, dog GIPR (Canis lupus familiaris, UniProt A0A8I3MPG1); experiment: In vitro potency, dog GIPR activation (receptor-mediated cAMP synthesis); type: cell-based; conditions: Table 12; read-out: In Vitro Potency GIPR EC50, Dog
T3 sequence (A0A8I3MPG1 24-449): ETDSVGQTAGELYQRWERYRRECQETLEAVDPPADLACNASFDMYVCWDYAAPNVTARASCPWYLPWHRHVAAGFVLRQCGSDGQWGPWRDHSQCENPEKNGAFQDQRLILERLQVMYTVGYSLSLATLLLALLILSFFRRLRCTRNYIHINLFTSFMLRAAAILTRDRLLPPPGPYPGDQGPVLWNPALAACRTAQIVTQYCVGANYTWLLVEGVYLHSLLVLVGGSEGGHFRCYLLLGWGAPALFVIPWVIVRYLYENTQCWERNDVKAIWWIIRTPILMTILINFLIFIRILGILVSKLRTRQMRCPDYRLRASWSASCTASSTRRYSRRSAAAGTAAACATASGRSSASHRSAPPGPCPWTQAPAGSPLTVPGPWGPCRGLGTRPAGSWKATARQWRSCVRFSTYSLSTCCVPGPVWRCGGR
Method: as §1

[5] = Pharmacokinetics in CD-1 mouse, I.V. or S.C. 1 mg/kg, plasma concentration by LC-MS; conditions: individual animals; for AUC(0-inf): AUCINF_pred; for MRT inf / MRT last: mouse, in vivo; for MRT inf: MRTINF_pred; for MRT last: MRTlast;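 as to all read-outs here: peptide levels in plasma quantified by LC-MS across multiple sampling times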
Method: The peptide plasma concentration at various time points was determined using LC-MS.

[6] = target: human GLP-1R (Homo sapiens, UniProt P43220); experiment: In vitro receptor activation reporter assay (CRE-Luc, HEK293-GLP-1R-CRE cells; receptor-mediated cAMP synthesis); type: cell-based; set-up: expressed in transfected cells; host or cells: HEK293 (CRE-HEK293, HEK293-GLP-1R-CRE); conditions: Table 11, human
[7] = CD-1, mouse, plasma, iv, 1 mg/kg, Table 15, I.V. 1 mg/kg
[8] = CD-1, mouse, plasma, sc, 1 mg/kg, S.C.
[9] = Table 15, I.V. 1 mg/kg, 1 mg/kg
[10] = iv, 1 mg/kg, Table 15, I.V. 1 mg/kg

Sequence of human GLP-1R (P43220 24-463): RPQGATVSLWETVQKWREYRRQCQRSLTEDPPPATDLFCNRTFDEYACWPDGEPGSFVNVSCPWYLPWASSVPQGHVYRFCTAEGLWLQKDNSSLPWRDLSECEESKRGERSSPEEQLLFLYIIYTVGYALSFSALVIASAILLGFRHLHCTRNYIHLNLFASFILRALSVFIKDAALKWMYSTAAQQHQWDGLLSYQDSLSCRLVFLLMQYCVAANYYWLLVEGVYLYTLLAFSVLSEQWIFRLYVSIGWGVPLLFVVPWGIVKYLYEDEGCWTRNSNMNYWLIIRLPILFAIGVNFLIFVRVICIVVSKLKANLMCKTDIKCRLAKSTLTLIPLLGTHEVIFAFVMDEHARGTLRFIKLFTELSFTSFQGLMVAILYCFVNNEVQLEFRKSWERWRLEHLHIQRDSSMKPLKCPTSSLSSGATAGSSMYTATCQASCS
Sequence of cynomolgous monkey GLP1R (F8V479 24-463): as the sequence (P43220 24-463) above, with S112N, F120S, S202G, L205V, L237F, W241R, I249V counted along it

Structure (SMILES): CC[C@H](C)[C@H](NC(=O)[C@H](CC(C)C)NC(=O)[C@H](Cc1c[nH]c2ccccc12)NC(=O)[C@@H]1CSCC(=O)NCCN(C(=O)CCC(=O)NCCOCCOCCC(=O)NCCOCCOCCC(=O)NCCCC[C@H](NC(=O)CCCCCCCCCCCCCCCCC(=O)O)C(=O)O)CCNC(=O)CSC[C@H](NC(=O)[C@H](CCCCN)NC(=O)[C@H](CC(=O)O)NC(=O)[C@H](CC(C)C)NC(=O)[C@H](Cc2ccc(O)cc2)NC(=O)[C@@H](NC(=O)[C@H](CO)NC(=O)[C@H](Cc2ccc(O)cc2)NC(=O)[C@H](CC(=O)O)NC(=O)[C@H](CO)NC(=O)[C@@H](NC(=O)[C@H](Cc2ccccc2)NC(=O)[C@@H](NC(=O)CNC(=O)[C@H](CCC(=O)O)NC(=O)C(C)(C)NC(=O)[C@@H](N)Cc2ccc(O)cc2)[C@@H](C)O)[C@@H](C)O)[C@@H](C)CC)C(=O)N[C@@H](C)C(=O)N[C@@H](C)C(=O)NC(C)(C)C(=O)N[C@@H](CCC(=O)O)C(=O)N[C@@H](Cc2ccccc2)C(=O)N[C@@H](C(C)C)C(=O)N1)C(=O)N[C@@H](C)C(=O)NCC(=O)NCC(=O)N1CCC[C@H]1C(=O)N[C@@H](CO)C(=O)N[C@@H](CO)C(=O)NCC(=O)N[C@@H](C)C(=O)N1CCC[C@H]1C(=O)N1CCC[C@H]1C(=O)N1CCC[C@H]1C(=O)N[C@@H](CO)C(N)=O [mCMZ371, YAibEGT-FTSDY-SIYLD-KXAAAib-EFVXW-LIAGG-PSSGA-PPPS-NH2 (where each X is C) (SEQ ID NO: 61)]
- EC50 ([1]; In Vitro Potency GIPR EC50, 10% FBS, 10% FBS): 0.04 ± 0.01 nM
- EC50 ([1]; No Serum, read-out: In Vitro Potency GIPR EC50, No Serum): 0.01 nM
- EC50 [2]: 0.11 nM
- EC50 [3]: 1.34 nM
- EC50 [4]: 0.47 nM
- AUC ([5]; CD-1, mouse, plasma, iv, 1 mg/kg, AUC0_24, Table 15, I.V. 1 mg/kg): 242 µg·h/mL
- AUC(0-t) ([5]; CD-1, mouse, plasma, iv, 1 mg/kg, AUC last, Table 15, I.V. 1 mg/kg): 341 µg·h/mL
- AUC(0-inf) [5, 7]: 344 µg·h/mL
- C0 ([5]; CD-1, mouse, plasma, iv, 1 mg/kg, C0, Table 15, I.V. 1 mg/kg): 15500 ng/mL
- Cmax ([5]; CD-1, mouse, plasma, iv, 1 mg/kg, Cmax, Table 15, I.V. 1 mg/kg): 15100 ng/mL
- Tmax [5, 7]: 0.08 h
- Vd ([5]; CD-1, mouse, plasma, iv, 1 mg/kg, Vss_pred, Table 15, I.V. 1 mg/kg): 0.051 L/kg
- Vd ([5]; CD-1, mouse, plasma, iv, 1 mg/kg, Vz_pred, Table 15, I.V. 1 mg/kg): 0.038 L/kg
- half-life ([5]; CD-1, mouse, plasma, iv, 1 mg/kg, t1/2, Table 15, I.V. 1 mg/kg): 9.13 h
- AUC ([5]; CD-1, mouse, plasma, sc, 1 mg/kg, AUC0_24, CD-1 mouse, S.C.): 127 µg·h/mL
- AUC(0-inf) [5, 8]: 274 µg·h/mL
- AUC ([5]; CD-1, mouse, plasma, sc, 1 mg/kg, AUCall, S.C.): 267 µg·h/mL
- CL/F ([5]; CD-1, mouse, plasma, sc, 1 mg/kg, Cl_Fpred, S.C.): 0.12 mL/min/kg
- Tmax [5, 8]: 24 h
- half-life ([5]; CD-1, mouse, plasma, sc, 1 mg/kg, t1/2, CD-1 mouse, S.C.): 10.7 h
- AUC0_24 ([5]; CD-1 mouse, S.C., 1 mg/kg): 67.917 µg·h/mL and 95.28 µg·h/mL
- AUCINF_pred ([5]; CD-1 mouse, S.C., 1 mg/kg): 143.707 µg·h/mL and 202.468 µg·h/mL
- AUC_% Extrap_pred ([5]; CD-1 mouse, S.C., 1 mg/kg): 2.34% and 3.37% and 2.55%
- AUCall ([5]; CD-1 mouse, S.C., 1 mg/kg): 138.868 µg·h/mL and 197.314 µg·h/mL
- AUMC_% Extrap_pred ([5]; CD-1 mouse, S.C., 1 mg/kg): 7.05% and 10.52% and 7.78%
- Cl_Fpred ([5]; CD-1 mouse, S.C., 1 mg/kg): 0.24 mL/min/kg
- Cmax ([5]; CD-1 mouse, S.C., 1 mg/kg): 9259 ng/mL and 3389 ng/mL and 6337 ng/mL
- MRTINF_pred ([5]; CD-1 mouse, S.C., 1 mg/kg): 28.76 h and 28.77 h
- MRTlast ([5]; CD-1 mouse, S.C., 1 mg/kg): 26.63 h and 27.22 h
- Tlast ([5]; CD-1 mouse, S.C., 1 mg/kg): 72 h
- V_F_pred ([5]; CD-1 mouse, S.C., 1 mg/kg): 0.06 L/kg and 0.12 L/kg and 0.08 L/kg
- t1/2 ([5]; CD-1 mouse, S.C., 1 mg/kg): 12.36 h and 11.01 h
- Tlast ([5]; Table 15, I.V. 1 mg/kg): 72 h
- AUC0_24 [5, 9]: 255.418 µg·h/mL and 285.442 µg·h/mL
- AUC last [5, 9]: 355.565 µg·h/mL and 403.09 µg·h/mL
- AUCINF_pred [5, 9]: 359.258 µg·h/mL and 407.964 µg·h/mL
- AUC_% Extrap_pred [5, 9]: 0.75% and 1.03% and 1.19%
- AUMC_% Extrap_pred [5, 9]: 3.41% and 4.82% and 5.56%
- C0 [5, 9]: 21060 ng/mL and 24603 ng/mL
- Cmax [5, 9]: 20910 ng/mL and 24203 ng/mL
- MRTINF_pred [5, 9]: 18.43 h and 18.65 h
- MRTlast [5, 9]: 17.72 h and 17.83 h
- Vss_pred [5, 9]: 0.054 L/kg and 0.046 L/kg
- Vz_pred [5, 9]: 0.04 L/kg and 0.036 L/kg
- t1/2 [5, 9]: 10 h and 10.31 h
- MRT inf [5, 10]: 18.7 h
- MRT last [5, 10]: 18.2 h
- MRT inf ([5]; sc, 1 mg/kg, CD-1 mouse, S.C.): 29 h
- MRT last ([5]; sc, 1 mg/kg, CD-1 mouse, S.C.): 27.6 h
- EC50 ([6]; In Vitro Potency GLPIR EC50, 10% FBS, 10% FBS): 0.56 ± 0.15 nM
- EC50 ([6]; No Serum, read-out: In Vitro Potency GLPIR EC50, No Serum): 0.14 ± 0.06 nM
